Experimental data taken from paper PMC9746817, “Activated cholesterol metabolism is integral for innate macrophage responses by amplifying Myd88 signaling” (JCI Insight, 2022).

Assays:
[1] = biological target: 3H-cholesterol; assay: 3H-cholesterol binding to recombinant GST-tagged protein; GST-Myd88 recovered and radioactivity measured; conditions: 3H-cholesterol 10 μM; n = 3; mean ± SD; parent: est. 3900; read off a plot
[2] = biological target: T1, Myd88 CRAC domain (Mus musculus, UniProt P22366); assay: NBD-cholesterol fluorescence binding assay; conditions: labelled compound; paper words the KD as that of cholesterol; NBD position (22- or 25-) not told
T1 construct: CRAC-A Tyr187, CRAC-B Tyr227
T1 sequence (P22366 whole entry, the tested form may be a part): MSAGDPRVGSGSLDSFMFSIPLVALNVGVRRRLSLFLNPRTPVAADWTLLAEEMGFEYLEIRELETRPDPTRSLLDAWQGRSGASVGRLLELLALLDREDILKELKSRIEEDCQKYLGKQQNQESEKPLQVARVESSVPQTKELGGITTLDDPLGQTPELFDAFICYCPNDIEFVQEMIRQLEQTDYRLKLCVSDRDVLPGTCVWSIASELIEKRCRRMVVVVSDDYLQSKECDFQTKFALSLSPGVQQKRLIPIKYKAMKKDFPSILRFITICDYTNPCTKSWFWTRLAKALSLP

Row | response [1] [CPM] | Molecule | Kd [2] [µM]
1 | 1900 | GST-tagged mouse Myd88 (from UniProt P22366) Y227F | –
2 | – | C[C@H](CNc1ccc([N+](=O)[O-])c2nonc12)[C@H]1CC[C@H]2[C@@H]3CC=C4C[C@@H](O)CC[C@]4(C)[C@H]3CC[C@]12C [NBD-cholesterol] | 14.1
